The subject of this data set is Lac-mCherry (lac repressor-mCherry fusion, dimeric) (Escherichia coli). In words: in vitro transcription repression (indirect), global MWC fit. The note with it: no effector, R conformer (KRO); 20 mM Mg2+; 2 mM spermidine; 20 mM Tris-HCl pH 7.9, 20 mM MgCl2, 1 mM DTT, 2 mM spermidine-HCl, NTPs (0.5 mM GTP/ATP/UTP, 0.25 mM CTP), 37 C, 30 min.

With O1 operator reporter, linearized 450 bp, the Ka was 0.42 nM⁻¹.

The record behind these values is PMC4121545.
